Consider two substances from patent publication US20260286322A1, “PROTEIN TYROSINE P[…] DOMAIN PEPTIDE DIMER FOR NERVOUS SYSTEM REPAIR” (NervGen Pharma Corp., priority 2023, published 2026).

Ends that are not written are not given here.

Data set [1] in a line: In vitro stability in human plasma. The class given is in vitro ADME. Particulars: after 30 minutes of incubation, 37° C., 1.6 μM. The method, then:
(§1) Stability of Compound 7 (human variant) in physiological buffer (Hanks Balanced Salt Solution, HBSS) and in plasma was evaluated in comparison with Compound 3.
(§2) Compound stability was defined as % recovery of the compound after 5 min, 15 min, and 30 min of incubation in the presence of corresponding plasma.
(§3) 200 μL of 1.6 μM Compound 3 and Compound 7 solutions were incubated in the matrix (Hank's Balanced Salt Solution or plasma) at 37° C. for 0, 5, 15, or 30 minutes. The incubation was followed by addition of 200 μL acetonitrile, vortexing and subsequent acidification with 45 μL of pure acetic acid. After additional vortexing, the resulting mixture was centrifuged for 5 min at 14,000 rpm and the supernatant was collected for analysis.
(§4) Determination of the Compound 3 or Compound 7 levels in the supernatant samples prepared as described above was performed using an LC-MS/MS method as follows: 40 μL of 5 μM Compound 7 in 10% acetic acid aqueous solution was added to 160 μL of the supernatant. […]
(§5) Percentages of Compound 3 and Compound 7 recovery after 0 minutes (at the start of the experiment), 5 minutes, 15 minutes, and 30 minutes incubation time points were calculated by dividing the corresponding peak areas by the peak area obtained from the samples prepared with no incubation (0 minutes of incubation time). […]

Data set [2] is described as follows: In vitro stability in dog plasma. The class given is in vitro ADME. The following applies: after 30 minutes of incubation, 37° C., 1.6 μM. The method, then: as §1, §2, §3, §4, §5
The nature of data set [3]: In vitro stability in physiological buffer (Hanks Balanced Salt Solution, HBSS). Type of data set: physicochemical. The following applies: 30 minutes incubation, 37° C., 1.6 μM. The method, then:
as §1, §2, §3, §4, §5

Data set [4] in a line: Self-assembly by negative stain transmission electron microscopy. Type of data set: physicochemical. The following applies: for colloidal structures from self-assembly in isotonic saline (TEM): 20 mg/mL in 0.9% (w/v) sodium chloride; for colloidal structures from self-assembly in water (TEM): 20 mg/mL in sterile water. The method, then:
The patterns of self-assembly of Compound 7 and Compound 3 were analyzed by negative stain transmission electron microscopy.
Compound 3 and Compound 7 were dissolved in sterile water or in 0.9% (w/v) sodium chloride in sterile water to obtain a 20 mg/mL solution. Formvar/carbon coated grids were exposed to […] drops of the Compound 3 or Compound 7 solutions for approximately 1 minute, blotted and then exposed to […] drops of sterile water for 10 seconds, blotted again and then stained with 2% (w/v) aqueous uranyl acetate for 30 seconds, The stained samples were exposed to […] drops of sterile water for 10 seconds and blotted dry prior to examination by transmission electron microscopy.

The nature of data set [5]: In vitro stability in rat plasma. The class given is in vitro ADME. The following applies: after 30 minutes of incubation, 37° C., 1.6 μM. The method, then:
as §1, §2, §3, §4, §5

With “TAT-Cys-human PTPRS wedge domain homodimer (GRKKRRQRRRCDMAEHTERLKANDSLKLSQEYESI; also: disulfide homodimer) [Compound 7]”, the “recovery rate in human plasma” value in data set [1] came out at 99%. Besides, the “recovery rate in dog plasma” value in data set [2] is 100%. Moreover, the “% recovery in HBSS” value in data set [3] was found to be 90%. In addition, in data set [4], the “colloidal structures from self-assembly in isotonic saline (TEM)” value is reported as “larger-in-size helical colloidal particles” and the “colloidal structures from self-assembly in water (TEM)” value is on record as “rod-shaped nanostructures”. Further, the “recovery rate in rat plasma” value in data set [5] was 92%.

Regarding “TAT-Cys-PTPRS (GRKKRRQRRRCDMAEHTERLKANDSLKLSQEYESI) [Compound 3]”, the “recovery rate in human plasma” value in data set [1] is “low stability”. The “recovery rate in dog plasma” value in data set [2] was “low stability”. Further, the “% recovery in HBSS” value in data set [3] is listed as “about 42%”. Also, in data set [4], the “colloidal structures from self-assembly in isotonic saline (TEM)” value is given as “amyloid-like fibrillar meshwork” and the “colloidal structures from self-assembly in water (TEM)” value is “rod-shaped nanostructures”. Also, the “recovery rate in rat plasma” value in data set [5] is “low stability”.
